Data on one substance can be found in US20080279865A1, “Therapy of Prostate Cancer With Ctla-4 Antibodies and Hormonal Therapy” (Pfizer, Inc., Pfizer Products, Inc., priority 2005, published 2008).

Series [1] can be described thus: Single agent studies of ticilimumab in melanoma (diarrhea). In kind it is in vivo, human. An excerpt:
In contrast, in the present study, 2 out of 3 patients treated with the combination of hormonal therapy and CTLA4 blockade had grade 3 diarrhea. […] Diarrhea is considered to be pharmacologically mediated in that it is likely related to the mechanism of action of ticilimumab. […] A possible correlation between tumor response in melanoma and putative “autoimmune breakthrough events” has been reported for single agent CTLA4 blockade in the absence of any other therapy (see Attia et al., J Clin Oncol. 23(25):6043-6053 (2005)).

A further series has as its system prostate cancer. Nature of the series: Neoadjuvant ticilimumab plus leuprolide and bicalutamide before prostatectomy in high risk prostate cancer. It counts as in vivo, human. An excerpt: Patients with prostate cancer who are eligible for radical prostatectomy and who have an intermediate or high risk of recurrence according to current medical standards are candidates for antibody-hormonal combination neoadjuvant therapy. The target population for this study is defined using the risk of biochemical recurrence instead of the probability of pathologically confined cancer. This approach is supported by the observation that patients with disease confined to the prostate may have a biochemical recurrence despite “definitive” local treatment. Therefore, this patient definition is more comprehensive. Considering recent data showing that a time to PSA failure of less than 2 years predicts for distant failure, patients who are at high risk for early PSA failure are candidates for neoadjuvant (and adjuvant) antibody-hormonal combination therapy as disclosed herein.
Pre-operatively, approximately after the end of the last cycle of antibody-hormone combination therapy and prior to scheduled prostatectomy, the following evaluations are completed: any adverse events, ECOG PS, vital signs and weight, physical examination (including signs of autoimmunity), ECG, and DRE. Samples for hematology and chemistry panels, along with PT, APTT, CRP and PSA are obtained.
Post-operative assessments are performed approximately two weeks following surgery. The evaluation includes physical examination (including autoimmunity), vital signs, ECOG performance status, body weight, hematology, and chemistry panels, PT, APTT, TSH, T3, T4, amylase, lipase, CRP, urinalysis. Additional samples are obtained for autoantibody panel, PSA, testosterone, HAH titer and PK. All patients are assessed for pathological assessment of the surgical specimen and adverse events.
The patient is premedicated with antihistamine (H1) at least one half hour prior to infusion of anti-CTLA4, but premedication is not required. Patients were administered leuprolide (LUPRON) and bicalutamide (CASODEX) in combination with an anti-CTLA4 antibody (ticilimumab). More specifically, on day 1 (D1), the patient was administered a single IV infusion (100 mL/hr) of anti-CTLA4 antibody at a dose of 1 mg/kg, 3 mg/kg, or 6 mg/kg, in combination with a 7.5 mg IM injection of leuprolide (LUPRON DEPOT). A minimum of 3 patients were administered each antibody dose. The study was amended to reinitiate dose escalation at a lower dose level, i.e., 1 mg/kg. Three patients received that dose level, and are undergoing surgery (after 3 months of combination therapy). Dose escalation continued to 3 mg/kg. Dose escalation is ongoing at 6 mg/kg and 10 mg/kg.
Bicalutamide (CASODEX) was administered orally, in tablet form, at a dose of 50 mg, once per day for the first fourteen days commencing on day 1 (D1). Preferably, bicalutamide was taken at the same time each day on days D1-D14, and a patient medication diary was used to record any interruption of bicalutamide dosing.
Prophylactic anti-emetics and anti-diarrheals were given as appropriate. The treatment was repeated after 28 days with a […] of antibody and 7.5 mg IM injection of LUPRON DEPOT for a maximum of three cycles (D1, D28, and D56) preceding surgery.

On to “ticilimumab: human IgG2 anti-CTLA4 antibody; heavy chain SEQ ID NO:26, light chain SEQ ID NO:32”, for which, in series [1] (multiple doses of 6 mg/kg), the patients with diarrhea entry was “none”. In addition, in series [1] (single dose of 6 mg/kg), the “patients with diarrhea grade 3” value is 1 out of three. In addition, the “diarrhea in a patient” value with prostate cancer (3 mg/kg ticilimumab and hormonal therapy) is listed as “prolonged diarrhea”. Further, the prostatectomy specimen findings entry in the series on prostate cancer (6 mg/kg, patient 1005-1004, after three months of antibody therapy and hormonal therapy (leuprolide and bicalutamide), FIG. 4) was “detectable tumor regression and signs of an inflammatory infiltrate around tumor cells”. For the same substance, the “patients who experienced diarrhea and did not complete the study” value in the series with prostate cancer (cohort of three patients at 6 mg/kg with hormonal therapy) is “two”. In the series with prostate cancer (combination of hormonal therapy and CTLA4 blockade), the “severity (duration and magnitude) of the diarrhea versus any other study at any dose level” value was “significantly higher”. Also, in the series with prostate cancer (combination of hormonal therapy and CTLA4 blockade, cohort of three patients at 6 mg/kg), the “patients with grade 3 diarrhea” value was 2 out of 3. Besides, in the series on prostate cancer (several patients treated with 1 mg/kg and 6 mg/kg, with androgen blockade), the “treatment effect in prostatectomy specimens” value is “regression of carcinoma and benign prostate glandular tissue, lymphocytic infiltrates (see FIG. 4), and signs of acute and chronic inflammation”.
